Assay results reported in patent publication US20200270627A1 (COMMONWEALTH SCIENTIFIC AND INDUSTRIAL RESEARCH ORGANISATION, published 2020).

T1: RGA4 1-171:CFP (rice, UniProt F7J0M4 1-171)
T1 construct: not shown: C-terminal CFP tag
T1 sequence (looked up): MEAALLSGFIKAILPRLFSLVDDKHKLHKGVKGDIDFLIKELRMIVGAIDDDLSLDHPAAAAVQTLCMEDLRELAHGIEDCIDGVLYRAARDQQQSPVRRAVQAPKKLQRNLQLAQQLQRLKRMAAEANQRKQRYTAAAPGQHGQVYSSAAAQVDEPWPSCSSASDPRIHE


Target: T1, RGA4 1-171:CFP
Assay: co-immunoprecipitation with anti-GFP antibodies from N. benthamiana leaf cells, anti-HA immunoblot

| Binder | binding result |
| --- | --- |
| Sr33 1-160:HA (other, also called full CC domain of Sr33 fused to a C-terminal HA tag; not shown: C-terminal HA tag (vector pBIN19-35S::GTW:3HA)) MDIVTGAIAKLIPKLGELLVGEYKLHKGVKKNIEDLLKELKTMNAALIKIGEVPPDQLDSQDKLWADEVRELSYVIEDAVDKFLVRVHGVEPDDNTNGFKGLMKRTTKLLKKVVDKHGIAHAIKDIKKELQEVAARRDRNKFDGIASIPTEAIDPRLRAL | no binding |
| Sr50 1-163:HA (other, Transiently expressed in N. benthamiana leaf cells under the 35S promoter; also called full CC domain of Sr50 fused to a C-terminal HA tag; not shown: C-terminal HA tag (vector pBIN19-35S::GTW:3HA)) MNIVTGAMGSLIPKLGELLMDEYKLHKRIKKDVEFLKKELESMHAALIKVGEVPRDQLDRQVKLWADEVRELSYNMEDVVDKFLVRVDGDGIQQPHDNSGRFKELKNKMIGLFKKGRNHHRIADAIKEIKEQLQEVAARRDRNKVAVPNPMEPITIDPCLRAL | no binding |
